Publication doi:10.1101/2020.07.27.223107 (bioRxiv, 2020)

Molecular target: the molecule itself
Test: SEC-MALLS

Row | Protein | stoichiometry N
1 | full-length human SNED1 (Sushi, nidogen and EGF-like domain-containing protein 1), FLAG-tagged (natural protein, UniProt Q8TER0 25-1413, looked up, N-glycosylated; phosphorylated on serine and threonine residues (sites not mapped)) AVALADFYPFGAERGDAVTPKQDDGGSGLRPLSVPFPFFGAEHSGLYVNNNGIISFLKEVSQFTPVAFPIAKDRCVVAAFWADVDNRRAGDVYYREATDPAMLRRATEDVRHYFPELLDFNATWVFVATWYRVTFFGGSSSSPVNTFQTVLITDGKLSFTIFNYESIVWTTGTHASSGGNATGLGGIAAQAGFNAGDGQRYFSIPGSRTADMAEVETTTNVGVPGRWAFRIDDAQVRVGGCGHTTSVCLALRPCLNGGKCIDDCVTGNPSYTCSCLSGFTGRRCHLDVNECASQPCQNGGTCTHGINSFRCQCPAGFGGPTCETAQSPCDTKECQHGGQCQVENGSAVCVCQAGYTGAACEMDVDDCSPDPCLNGGSCVDLVGNYTCLCAEPFKGLRCETGDHPVPDACLSAPCHNGGTCVDADQGYVCECPEGFMGLDCRERVPDDCECRNGGRCLGANTTLCQCPLGFFGLLCEFEITAMPCNMNTQCPDGGYCMEHGGSYLCVCHTDHNASHSLPSPCDSDPCFNGGSCDAHDDSYTCECPRGFHGKHCEKARPHLCSSGPCRNGGTCKEAGGEYHCSCPYRFTGRHCEIGKPDSCASGPCHNGGTCFHYIGKYKCDCPPGFSGRHCEIAPSPCFRSPCVNGGTCEDRDTDFFCHCQAGYMGRRCQAEVDCGPPEEVKHATLRFNGTRLGAVALYACDRGYSLSAPSRIRVCQPHGVWSEPPQCLEIDECRSQPCLHGGSCQDRVAGYLCLCSTGYEGAHCELERDECRAHPCRNGGSCRNLPGAYVCRCPAGFVGVHCETEVDACDSSPCQHGGRCESGGGAYLCVCPESFFGYHCETVSDPCFSSPCGGRGYCLASNGSHSCTCKVGYTGEDCAKELFPPTALKMERVEESGVSISWNPPNGPAARQMLDGYAVTYVSSDGSYRRTDFVDRTRSSHQLQALAAGRAYNISVFSVKRNSNNKNDISRPAVLLARTRPRPVEGFEVTNVTASTISVQWALHRIRHATVSGVRVSIRHPEALRDQATDVDRSVDRFTFRALLPGKRYTIQLTTLSGLRGEEHPTESLATAPTHVWTRPLPPANLTAARVTATSAHVVWDAPTPGSLLEAYVINVTTSQSTKSRYVPNGKLASYTVRDLLPGRRYQLSVIAVQSTELGPQHSEPAHLYIITSPRDGADRRWHQGGHHPRVLKNRPPPARLPELRLLNDHSAPETPTQPPRFSELVDGRGRVSARFGGSPSKAATVRSQPTASAQLENMEEAPKRVSLALQLPEHGSKDIGNVPGNCSENPCQNGGTCVPGADAHSCDCGPGFKGRRCELACIKVSRPCTRLFSETKAFPVWEGGVCHHVYKRVYRVHQDICFKESCESTSLKKTPNRKQSKSQTLEKS | 2
2 | N-terminal fragment of human SNED1 (amino acids 1 to 260, includes the NIDO domain), FLAG-tagged (domain or fragment, UniProt Q8TER0 25-260, looked up, N-glycosylated; phosphorylated on serine and threonine residues (sites not mapped)) AVALADFYPFGAERGDAVTPKQDDGGSGLRPLSVPFPFFGAEHSGLYVNNNGIISFLKEVSQFTPVAFPIAKDRCVVAAFWADVDNRRAGDVYYREATDPAMLRRATEDVRHYFPELLDFNATWVFVATWYRVTFFGGSSSSPVNTFQTVLITDGKLSFTIFNYESIVWTTGTHASSGGNATGLGGIAAQAGFNAGDGQRYFSIPGSRTADMAEVETTTNVGVPGRWAFRIDDAQV | 2
